Molecular target: T1, RSV attachment glycoprotein G (RSV-G Protein, His Tag) (respiratory syncytial virus) (UniProt O36633)
T1 sequence: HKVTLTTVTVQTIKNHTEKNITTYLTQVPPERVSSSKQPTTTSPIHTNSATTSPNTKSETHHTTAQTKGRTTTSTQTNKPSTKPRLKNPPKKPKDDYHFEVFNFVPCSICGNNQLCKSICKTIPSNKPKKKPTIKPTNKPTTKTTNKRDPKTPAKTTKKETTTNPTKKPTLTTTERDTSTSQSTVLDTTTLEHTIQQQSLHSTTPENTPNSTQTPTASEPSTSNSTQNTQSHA
Assay: fluorescence polarization
Conditions: FP: PBS pH 7.4, 0.5 nM aptamer; filter binding: PBS, BSA, 0.1% Tween 20, 0.1 ug/ml poly(dIdC), 50 nM aptamer, 20 min RT; ALPHA: HBSS, 1 mg/ml BSA, 0.05 ug/ml …

“TAGGGAAGAGAAGGACATATGATAGTGCGGTGAGCCGTCGGACATACAAATACTTGACTAGTACATGACCACTTGA [H8 (Alexa Fluor 488)]” was tested, and the Kd was 30 nM.
